Experimental data from the supplement of paper PMC11246515.
± gives the standard deviation of the averaged measurements.

Assay: total protein half-life in vivo (active degradation + dilution); higher = more stable protein
[1] = E. coli NCM3722 delta-clpP delta-lon delta-hslV, growth: N-lim chemostat, doubling time 6 h
[2] = E. coli NCM3722 delta-clpP, growth: N-lim chemostat, doubling time 6 h
[3] = E. coli NCM3722 delta-hslV, growth: N-lim chemostat, doubling time 6 h
[4] = E. coli NCM3722 delta-lon, growth: N-lim chemostat, doubling time 6 h
[5] = E. coli NCM3722 delta-smpB, growth: N-lim chemostat, doubling time 6 h
[6] = wild type E. coli NCM3722, growth: C-lim chemostat, doubling time 3 h
[7] = wild type E. coli NCM3722, growth: C-lim chemostat, doubling time 6 h
[8] = wild type E. coli NCM3722, growth: C-lim chemostat, doubling time 12 h
[9] = wild type E. coli NCM3722, growth: N-lim chemostat, doubling time 6 h
[10] = wild type E. coli NCM3722, growth: N-lim chemostat, doubling time 12 h
[11] = wild type E. coli NCM3722, growth: P-lim chemostat, doubling time 6 h
[12] = wild type E. coli NCM3722, growth: P-lim chemostat, doubling time 12 h

Sequence	total protein half-life in vivo [1] [h]	total protein half-life in vivo [2] [h]	total protein half-life in vivo [3] [h]	total protein half-life in vivo [4] [h]	total protein half-life in vivo [5] [h]	total protein half-life in vivo [6] [h]	total protein half-life in vivo [7] [h]	total protein half-life in vivo [8] [h]	total protein half-life in vivo [9] [h]	total protein half-life in vivo [10] [h]	total protein half-life in vivo [11] [h]	total protein half-life in vivo [12] [h]
MKRLIVGISGASGAIYGVRLLQVLRDVTDIETHLVMSQAARQTLSLETDFSLREVQALADVTHDARDIAASISSGSFQTLGMVILPCSIKTLSGIVHSYTDGLLTRAADVVLKERRPLVLCVRETPLHLGHLRLMTQAAEIGAVIMPPVPAFYHRPQSLDDVINQTVNRVLDQFAITLPEDLFARWQGA [P0AG03]	5.38 ± 0.31	4.35 ± 0.49	4.3 ± 0.56	4.77 ± 0.86	4.678 ± 0.041	3.22 ± 0.35	6.52 ± 0.94	11.2 ± 1.5	4.09 ± 0.35	7.54 ± 1	5.53 ± 0.22	11.9 ± 0.56
MKRNLLSSAIIVAIMSLGLTGCDDKKAETETLPPANSQPAAPAPEAKPTEAPVAKAEAKPETPAQPVVDEQAVFDEKMDVYIKCYNKLQIPVQRSLARYADWLKDFKQGPTGEERTVYGIYGISESNLAECEKGVKSAVALTPALQPIDGVAVSYIDAAVALGNTINEMDKYYTQENYKDDAFAKGKTLHQTFLKNLEAFEPVAESYHAAIQEINDKRQLAELKNIEEREGKTFHYYSLAVMISAKQINNLISQDKFDAEAAMKKVSELETLVAQAKEADKGGMNFSFINSAGQYQLEAKKYVRRIRDKVPYSDWDKEQLQDANSSWMVEDSFPRALREYNEMVDDYNSLR	6	–	–	–	5.67 ± 0.5	–	6.58	–	6.45	10.5	5.81 ± 0.094	10
MKRNTKIALVMMALSAMAMGSTSAFAHGGHGMWQQNAAPLTSEQQTAWQKIHNDFYAQSSALQQQLVTKRYEYNALLAANPPDSSKINAVAKEMENLRQSLDELRVKRDIAMAEAGIPRGAGMGMGYGGCGGGGHMGMGHW [P0AAA9]	–	–	–	–	–	–	–	–	–	13	–	–
MKRQKRDRLERAHQRGYQAGIAGRSKEMCPYQTLNQRSQWLGGWREAMADRVVMA [P0AFW2]	0.535	0.588	0.382	0.441	0.472 ± 0.2	–	0.0712	0.0514 ± 0.073	0.352	0.686 ± 0.26	–	1.16
MKRRLIIAASLFVFNLSSGFAAENIPFSPQPPEIHAGSWVLMDYTTGQILTAGNEHQQRNPASLTKLMTGYVVDRAIDSHRITPDDIVTVGRDAWAKDNPVFVGSSLMFLKEGDRVSVRDLSRGLIVDSGNDACVALADYIAGGQRQFVEMMNNYAEKLHLKDTHFETVHGLDAPGQHSSAYDLAVLSRAIIHGEPEFYHMYSEKSLTWNGITQQNRNGLLWDKTMNVDGLKTGHTSGAGFNLIASAVDGQRRLIAVVMGADSAKGREEEARKLLRWGQQNFTTVQILHRGKKVGTERIWYGDKENIDLGTEQEFWMVLPKAEIPHIKAKYTLDGKELTAPISAHQRVGEIELYDRDKQVAHWPLVTLESVGEGSMFSRLSDYFHHKA	–	–	–	–	–	–	–	–	7.4	–	–	–
MKRTMLYLSLLAVSCSVSAAKYPVLTESSPEKAGFNVERLNQMDRWISQQVDVGYPSVNLLIIKDNQIVYRKAWGAAKKYDGSVLMEQPVKATTGTLYDLASNTKMYATNFALQKLMSEGKLHPDDRIAKYIPGFADSPNDTIKGKNTLRISDLLHHSGGFPADPQYPNKAVAGALYSQDKGQTLEMIKRTPLEYQPGSKHIYSDVDYMLLGFIVESVTGQPLDRYVEESIYRPLGLTHTVFNPLLKGFKPQQIAATELNGNTRDGVIHFPNIRTSTLWGQVHDEKAFYSMGGVSGHAGLFSNTGDIAVLMQTMLNGGGYGDVQLFNAETVKMFTTSSKEDATFGLGWRVNGNATMTPTFGTLASPQTYGHTGWTGTVTVIDPVNHMTIVMLSNKPHSPVADPQKNPNMFESGQLPIATYGWVVDQVYAALKQK	6.01 ± 1.4	–	–	5.56 ± 0.55	5.13 ± 0.61	3.15 ± 0.17	6.3 ± 0.47	10.4 ± 1.3	5.42 ± 0.84	11.2 ± 0.13	5.84 ± 0.99	–
MKRVLFFLLMIFVSFGVIADCEIQAKDHDCFTIFAKGTIFSAFPVLNNKAMWRWYQNEDIGEYYWQTELGTCKNNKFTPSGARLLIRVGSLRLNENHAIKGTLQELINTAEKTAFLGDRFRSYIRAGIYQKKSSDPVQLLAVLDNSIMVKYFKDEKPTYARMTAHLPNKNESYECLIKIQHELIRSEEK	1.81	–	–	–	1.13	–	–	10.3	–	4.57	–	–
MKRWPVFPRSLRQLVMLAFLLILLPLLVLAWQAWQSLNALSDQAALVNRTTLIDARRSEAMTNAALEMERSYRQYCVLDDPTLAKVYQSQRKRYSEMLDAHAGVLPDDKLYQALRQDLHNLAQLQCNNSGPDAAAAARLEAFASANTEMVQATRTVVFSRGQQLQREIAERGQYFGWQSLVLFLVSLVMVLLFTRMIIGPVKNIERMINRLGEGRSLGNSVSFSGPSELRSVGQRILWLSERLSWLESQRHQFLRHLSHELKTPLASMREGTELLADQVVGPLTPEQKEVVSILDSSSRNLQKLIEQLLDYNRKQADSAVELENVELAPLVETVVSAHSLPARAKMMHTDVDLKATACLAEPMLLMSVLDNLYSNAVHYGAESGNICLRSSLHGARVYIDVINTGTPIPQEERAMIFEPFFQGSHQRKGAVKGSGLGLSIARDCIRRMQGELYLVDESGQDVCFRIELPSSKNTK	6.52 ± 0.67	6.72 ± 0.21	6.56 ± 0.21	6.41 ± 0.28	–	3.12 ± 0.098	–	10.8 ± 0.2	6.16 ± 0.12	13.1 ± 1	6.8109 ± 0.0031	12.6 ± 0.89
